Results reported in the supplement of paper PMC5998384.

Experiments:
HeLa Kyoto [1] = assay: melting temperature (median over replicates), in situ; higher = more thermally stable
HeLa Kyoto [2] = assay: solubility in G1/S (NP-40 vs SDS abundance) (log2 ratio); higher = more soluble; conditions: cell cycle stage: G1/S
HeLa Kyoto [3] = assay: thermal stability score vs G1/S (z-score of summed log2 fold changes over temperatures); higher = more thermally stable than in G1/S
HeLa Kyoto [4] = assay: solubility change mitosis vs G1/S (difference of NP-40 vs SDS log2 ratios) (log2 ratio difference); higher = more soluble in mitosis
[5] = cell cycle stage: early G1 (4.5 h after nocodazole release)
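Throughout, for melting temperature (median over replicates), in situ: HeLa Kyoto cells synchronized by double thymidine or nocodazole block, proteins quantified by TMT10plex mass spectrometry, three independent biological replicates.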
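Throughout, for solubility change mitosis vs G1/S (difference of NP-40 vs SDS log2 ratios): synchronized HeLa Kyoto cells (double thymidine block for G1/S, nocodazole release for mitosis), protein amounts in NP-40 versus SDS lysates quantified by mass spectrometry, three biological replicates.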
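Throughout, for solubility in G1/S (NP-40 vs SDS abundance): HeLa Kyoto cells arrested at G1/S by double thymidine block, proteins quantified by TMT10plex mass spectrometry in mild NP-40 versus SDS extracts, three biological replicates.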
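Throughout, for thermal stability score vs G1/S (z-score of summed log2 fold changes over temperatures): synchronized HeLa Kyoto cells, proteins quantified by TMT10plex mass spectrometry, three biological replicates, mitosis taken 0.5 h after nocodazole release, G1/S directly after double thymidine block.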

Sequence | melting temperature (HeLa Kyoto [1]; cell cycle stage: G1/S) | melting temperature (HeLa Kyoto [1]; cell cycle stage: mitosis) | solubility in G1/S (log2) (HeLa Kyoto [2]) | thermal stability score (HeLa Kyoto [3]; [5]) | thermal stability score (HeLa Kyoto [3]; cell cycle stage: mitosis) | solubility change mitosis (log2) (HeLa Kyoto [4])
MAPLDLDKYVEIARLCKYLPENDLKRLCDYVCDLLLEESNVQPVSTPVTVCGDIHGQFYDLCELFRTGGQVPDTNYIFMGDFVDRGYYSLETFTYLLALKAKWPDRITLLRGNHESRQITQVYGFYDECQTKYGNANAWRYCTKVFDMLTVAALIDEQILCVHGGLSPDIKTLDQIRTIERNQEIPHKGAFCDLVWSDPEDVDTWAISPRGAGWLFGAKVTNEFVHINNLKLICRAHQLVHEGYKFMFDEKLVTVWSAPNYCYRCGNIASIMVFKDVNTREPKLFRAVPDSERVIPPRTTTPYFL [PPP6C] | 53.7 °C | 54.1 °C | -0.00442 | -1.68 | -2.31 | -0.154
MAPLLGRKPFPLVKPLPGEEPLFTIPHTQEAFRTREEYEARLERYSERIWTCKSTGSSQLTHKEAWEEEQEVAELLKEEFPAWYEKLVLEMVHHNTASLEKLVDTAWLEIMTKYAVGEECDFEVGKEKMLKVKIVKIHPLEKVDEEATEKKSDGACDSPSSDKENSSQIAQDHQKKETVVKEDEGRRESINDRARRSPRKLPTSLKKGERKWAPPKFLPHKYDVKLQNEDKIISNVPADSLIRTERPPNKEIVRYFIRHNALRAGTGENAPWVVEDELVKKYSLPSKFSDFLLDPYKYMTLNPSTKRKNTGSPDRKPSKKSKTDNSSLSSPLNPKLWCHVHLKKSLSGSPLKVKNSKNSKSPEEHLEEMMKMMSPNKLHTNFHIPKKGPPAKKPGKHSDKPLKAKGRSKGILNGQKSTGNSKSPKKGLKTPKTKMKQMTLLDMAKGTQKMTRAPRNSGGTPRTSSKPHKHLPPAALHLIAYYKENKDREDKRSALSCVISKTARLLSSEDRARLPEELRSLVQKRYELLEHKKRWASMSEEQRKEYLKKKREELKKKLKEKAKERREKEMLERLEKQKRYEDQELTGKNLPAFRLVDTPEGLPNTLFGDVAMVVEFLSCYSGLLLPDAQYPITAVSLMEALSADKGGFLYLNRVLVILLQTLLQDEIAEDYGELGMKLSEIPLTLHSVSELVRLCLRRSDVQEESEGSDTDDNKDSAAFEDNEVQDEFLEKLETSEFFELTSEEKLQILTALCHRILMTYSVQDHMETRQQMSAELWKERLAVLKEENDKKRAEKQKRKEMEAKNKENGKVENGLGKTDRKKEIVKFEPQVDTEAEDMISAVKSRRLLAIQAKKEREIQEREMKVKLERQAEEERIRKHKAAAEKAFQEGIAKAKLVMRRTPIGTDRNHNRYWLFSDEVPGLFIEKGWVHDSIDYRFNHHCKDHTVSGDEDYCPRSKKANLGKNASMNTQHGTATEVAVETTTPKQGQNLWFLCDSQKELDELLNCLHPQGIRESQLKERLEKRYQDIIHSIHLARKPNLGLKSCDGNQELLNFLRSDLIEVATRLQKGGLGYVEETSEFEARVISLEKLKDFGECVIALQASVIKKFLQGFMAPKQKRRKLQSEDSAKTEEVDEEKKMVEEAKVASALEKWKTAIREAQTFSRMHVLLGMLDACIKWDMSAENARCKVCRKKGEDDKLILCDECNKAFHLFCLRPALYEVPDGEWQCPACQPATARRNSRGRNYTEESASEDSEDDESDEEEEEEEEEEEEEDYEVAGLRLRPRKTIRGKHSVIPPAARSGRRPGKKPHSTRRSQPKAPPVDDAEVDELVLQTKRSSRRQSLELQKCEEILHKIVKYRFSWPFREPVTRDEAEDYYDVITHPMDFQTVQNKCSCGSYRSVQEFLTDMKQVFTNAEVYNCRGSHVLSCMVKTEQCLVALLHKHLPGHPYVRRKRKKFPDRLAEDEGDSEPEAVGQSRGRRQKK [BAZ1B] | 50.7 °C | 51 °C | -2.14 | 1.09 | -0.274 | 1.24
MAPPSTREPRVLSATSATKSDGEMVLPGFPDADSFVKFALGSVVAVTKASGGLPQFGDEYDFYRSFPGFQAFCETQGDRLLQCMSRVMQYHGCRSNIKDRSKVTELEDKFDLLVDANDVILERVGILLDEASGVNKNQQPVLPAGLQVPKTVVSSWNRKAAEYGKKAKSETFRLLHAKNIIRPQLKFREKIDNSNTPFLPKIFIKPNAQKPLPQALSKERRERPQDRPEDLDVPPALADFIHQQRTQQVEQDMFAHPYQYELNHFTPADAVLQKPQPQLYRPIEETPCHFISSLDELVELNEKLLNCQEFAVDLEHHSYRSFLGLTCLMQISTRTEDFIIDTLELRSDMYILNESLTDPAIVKVFHGADSDIEWLQKDFGLYVVNMFDTHQAARLLNLGRHSLDHLLKLYCNVDSNKQYQLADWRIRPLPEEMLSYARDDTHYLLYIYDKMRLEMWERGNGQPVQLQVVWQRSRDICLKKFIKPIFTDESYLELYRKQKKHLNTQQLTAFQLLFAWRDKTARREDESYGYVLPNHMMLKIAEELPKEPQGIIACCNPVPPLVRQQINEMHLLIQQAREMPLLKSEVAAGVKKSGPLPSAERLENVLFGPHDCSHAPPDGYPIIPTSGSVPVQKQASLFPDEKEDNLLGTTCLIATAVITLFNEPSAEDSKKGPLTVAQKKAQNIMESFENPFRMFLPSLGHRAPVSQAAKFDPSTKIYEISNRWKLAQVQVQKDSKEAVKKKAAEQTAAREQAKEACKAAAEQAISVRQQVVLENAAKKRERATSDPRTTEQKQEKKRLKISKKPKDPEPPEKEFTPYDYSQSDFKAFAGNSKSKVSSQFDPNKQTPSGKKCIAAKKIKQSVGNKSMSFPTGKSDRGFRYNWPQR [EXOSC10] | 46.6 °C | 48.7 °C | -0.517 | 4.13 | 7.46 | 0.289
MAPPVAERGLKSVVWQKIKATVFDDCKKEGEWKIMLLDEFTTKLLASCCKMTDLLEEGITVVENIYKNREPVRQMKALYFITPTSKSVDCFLHDFASKSENKYKAAYIYFTDFCPDNLFNKIKASCSKSIRRCKEINISFIPHESQVYTLDVPDAFYYCYSPDPGNAKGKDAIMETMADQIVTVCATLDENPGVRYKSKPLDNASKLAQLVEKKLEDYYKIDEKSLIKGKTHSQLLIIDRGFDPVSTVLHELTFQAMAYDLLPIENDTYKYKTDGKEKEAILEEEDDLWVRIRHRHIAVVLEEIPKLMKEISSTKKATEGKTSLSALTQLMKKMPHFRKQITKQVVHLNLAEDCMNKFKLNIEKLCKTEQDLALGTDAEGQKVKDSMRVLLPVLLNKNHDNCDKIRAILLYIFSINGTTEENLDRLIQNVKIENESDMIRNWSYLGVPIVPQSQQGKPLRKDRSAEETFQLSRWTPFIKDIMEDAIDNRLDSKEWPYCSQCPAVWNGSGAVSARQKPRANYLEDRKNGSKLIVFVIGGITYSEVRCAYEVSQAHKSCEVIIGSTHVLTPKKLLDDIKMLNKPKDKVSLIKDE [STXBP3] | 49 °C | 49 °C | -0.0906 | -0.14 | 0.708 | -0.0474
MAPVGVEKKLLLGPNGPAVAAAGDLTSEEEEGQSLWSSILSEVSTRARSKLPSGKNILVFGEDGSGKTTLMTKLQGAEHGKKGRGLEYLYLSVHDEDRDDHTRCNVWILDGDLYHKGLLKFAVSAESLPETLVIFVADMSRPWTVMESLQKWASVLREHIDKMKIPPEKMRELERKFVKDFQDYMEPEEGCQGSPQRRGPLTSGSDEENVALPLGDNVLTHNLGIPVLVVCTKCDAVSVLEKEHDYRDEHLDFIQSHLRRFCLQYGAALIYTSVKEEKNLDLLYKYIVHKTYGFHFTTPALVVEKDAVFIPAGWDNEKKIAILHENFTTVKPEDAYEDFIVKPPVRKLVHDKELAAEDEQVFLMKQQSLLAKQPATPTRASESPARGPSGSPRTQGRGGPASVPSSSPGTSVKKPDPNIKNNAASEGVLASFFNSLLSKKTGSPGSPGAGGVQSTAKKSGQKTVLSNVQEELDRMTRKPDSMVTNSSTENEA [DYNC1LI2] | 50.6 °C | 51.5 °C | 0.247 | -0.131 | 0.16 | 0.046
MAPVLSKDSADIESILALNPRTQTHATLCSTSAKKLDKKHWKRNPDKNCFNCEKLENNFDDIKHTTLGERGALREAMRCLKCADAPCQKSCPTNLDIKSFITSIANKNYYGAAKMIFSDNPLGLTCGMVCPTSDLCVGGCNLYATEEGPINIGGLQQFATEVFKAMSIPQIRNPSLPPPEKMSEAYSAKIALFGAGPASISCASFLARLGYSDITIFEKQEYVGGLSTSEIPQFRLPYDVVNFEIELMKDLGVKIICGKSLSVNEMTLSTLKEKGYKAAFIGIGLPEPNKDAIFQGLTQDQGFYTSKDFLPLVAKGSKAGMCACHSPLPSIRGVVIVLGAGDTAFDCATSALRCGARRVFIVFRKGFVNIRAVPEEMELAKEEKCEFLPFLSPRKVIVKGGRIVAMQFVRTEQDETGKWNEDEDQMVHLKADVVISAFGSVLSDPKVKEALSPIKFNRWGLPEVDPETMQTSEAWVFAGGDVVGLANTTVESVNDGKQASWYIHKYVQSQYGASVSAKPELPLFYTPIDLVDISVEMAGLKFINPFGLASATPATSTSMIRRAFEAGWGFALTKTFSLDKDIVTNVSPRIIRGTTSGPMYGPGQSSFLNIELISEKTAAYWCQSVTELKADFPDNIVIASIMCSYNKNDWTELAKKSEDSGADALELNLSCPHGMGERGMGLACGQDPELVRNICRWVRQAVQIPFFAKLTPNVTDIVSIARAAKEGGANGVTATNTVSGLMGLKSDGTPWPAVGIAKRTTYGGVSGTAIRPIALRAVTSIARALPGFPILATGGIDSAESGLQFLHSGASVLQVCSAIQNQDFTVIEDYCTGLKALLYLKSIEELQDWDGQSPATVSHQKGKPVPRIAELMDKKLPSFGPYLEQRKKIIAENKIRLKEQNVAFSPLKRNCFIPKRPIPTIKDVIGKALQYLGTFGELSNVEQVVAMIDEEMCINCGKCYMTCNDSGYQAIQFDPETHLPTITDTCTGCTLCLSVCPIVDCIKMVSRTTPYEPKRGVPLSVNPVC [DPYD] | 54 °C | 53.5 °C | -0.116 | -1.59 | -1.63 | 0.02
MAPWTLWRCCQRVVGWVPVLFITFVVVWSYYAYVVELCVFTIFGNEENGKTVVYLVAFHLFFVMFVWSYWMTIFTSPASPSKEFYLSNSEKERYEKEFSQERQQEILRRAARALPIYTTSASKTIRYCEKCQLIKPDRAHHCSACDSCILKMDHHCPWVNNCVGFSNYKFFLLFLLYSLLYCLFVAATVLEYFIKFWTNELTDTRAKFHVLFLFFVSAMFFISVLSLFSYHCWLVGKNRTTIESFRAPTFSYGPDGNGFSLGCSKNWRQVFGDEKKYWLLPIFSSLGDGCSFPTRLVGMDPEQASVTNQNEYARSSGSNQPFPIKPLSESKNRLLDSESQWLENGAEEGIVKSGTNNHVTVAIEN [ZDHHC20] | 55.1 °C | 58.2 °C | -0.00639 | -0.885 | -1.86 | -0.0867
MAQADIALIGLAVMGQNLILNMNDHGFVVCAFNRTVSKVDDFLANEAKGTKVVGAQSLKEMVSKLKKPRRIILLVKAGQAVDDFIEKLVPLLDTGDIIIDGGNSEYRDTTRRCRDLKAKGILFVGSGVSGGEEGARYGPSLMPGGNKEAWPHIKTIFQGIAAKVGTGEPCCDWVGDEGAGHFVKMVHNGIEYGDMQLICEAYHLMKDVLGMAQDEMAQAFEDWNKTELDSFLIEITANILKFQDTDGKHLLPKIRDSAGQKGTGKWTAISALEYGVPVTLIGEAVFARCLSSLKDERIQASKKLKGPQKFQFDGDKKSFLEDIRKALYASKIISYAQGFMLLRQAATEFGWTLNYGGIALMWRGGCIIRSVFLGKIKDAFDRNPELQNLLLDDFFKSAVENCQDSWRRAVSTGVQAGIPMPCFTTALSFYDGYRHEMLPASLIQAQRDYFGAHTYELLAKPGQFIHTNWTGHGGTVSSSSYNA [PGD] | 54.4 °C | 54.4 °C | 0.123 | 1.53 | 0.62 | -0.184
